The record followed here is PMC6200642.

The target in this assay is recombinant UspA2 (ubiquitous surface protein A2), cloned from M. catarrhalis strain RH4 (Moraxella catarrhalis strain RH4). Kind of assay: ELISA. (In general: An ELISA detects its analyte on a solid surface through an enzyme-linked reagent.)

Take “decorin (from UniProt P07585 31-359) (natural protein)”: the Kd worked out at 293 nM.

B1: osteoadherin (natural protein)
chain: QYETYQWDEDYDQEPDDDYQTGFPFRQNVDYGVPFHQYTLGCVSECFCPTNFPSSMYCDNRKLKTIPNIPMHIQQLYLQFNEIEAVTANSFINATHLKEINLSHNKIKSQKIDYGVFAKLPNLLQLHLEHNNLEEFPFPLPKSLERLLLGYNEISKLQTNAMDGLVNLTMLDLCYNYLHDSLLKDKIFAKMEKLMQLNLCSNRLESMPPGLPSSLMYLSLENNSISSIPEKYFDKLPKLHTLRMSHNKLQDIPYNIFNLPNIVELSVGHNKLKQAFYIPRNLEHLYLQNNEIEKMNLTVMCPSIDPLHYHHLTYIRVDQNKLKEPISSYIFFCFPHIHTIYYGEQRSTNGQTIQLKTQVFRRFPDDDDESEDHDDPDNAHESPEQEGAEGHFDLHYYENQE
modifications: biotinylated (EZ-Link Sulfo-NHS-LC-Biotinylation kit); glycosylated
Regarding B1, the Kd is 231 nM.

B2: biglycan (natural protein)
chain: DEEASGADTSGVLDPDSVTPTYSAMCPFGCHCHLRVVQCSDLGLKSVPKEISPDTTLLDLQNNDISELRKDDFKGLQHLYALVLVNNKISKIHEKAFSPLRKLQKLYISKNHLVEIPPNLPSSLVELRIHDNRIRKVPKGVFSGLRNMNCIEMGGNPLENSGFEPGAFDGLKLNYLRISEAKLTGIPKDLPETLNELHLDHNKIQAIELEDLLRYSKLYRLGLGHNQIRMIENGSLSFLPTLRELHLDNNKLARVPSGLPDLKLLQVVYLHSNNITKVGVNDFCPMGFGVKRAYYNGISLFNNPVPYWEVQPATFRCVTDRLAIQFGNYKK
modifications: biotinylated (EZ-Link Sulfo-NHS-LC-Biotinylation kit); glycosylated
Consider B2, for which the Kd is 89 nM.

B3: fibromodulin (natural protein)
chain: QYEDDPHWWFHYLRSQQSTYYDPYDPYPYETYEPYPYGVDEGPAYTYGSPSPPDPRDCPQECDCPPNFPTAMYCDNRNLKYLPFVPSRMKYVYFQNNQITSIQEGVFDNATGLLWIALHGNQITSDKVGRKVFSKLRHLERLYLDHNNLTRMPGPLPRSLRELHLDHNQISRVPNNALEGLENLTALYLQHNEIQEVGSSMRGLRSLILLDLSYNHLRKVPDGLPSALEQLYMEHNNVYTVPDSYFRGAPKLLYVRLSHNSLTNNGLASNTFNSSSLLELDLSYNQLQKIPPVNTNLENLYLQGNRINEFSISSFCTVVDVVNFSKLQVLRLDGNEIKRSAMPADAPLCLRLASLIEI
modifications: biotinylated (EZ-Link Sulfo-NHS-LC-Biotinylation kit); glycosylated
For B3, the Kd stood at 202 nM.

For orientation: Kd means the equilibrium constant for the complex coming apart.
